Laboratory results reported in patent publication US20260098059A1 (ENDOMET BIOSCIENCES, published 2026).
“And” between values parts separate entries of the source, which are not always exact repeats. Identical values can stand only once. [ ]: non-standard residue; d: D form. Trp(1-Me) = Cn1cc(C[C@H](N)C(=O)O)c2ccccc21; αMeW = C[C@](N)(Cc1c[nH]c2ccccc12)C(=O)O; Trp(3-Me) = 3-methyltryptophan; αMeL = CC(C)C[C@](C)(N)C(=O)O

T1: β-catenin (UniProt P35222 134-665, limits assumed, biotinylated in the SPR and plate assays)
T1 sequence (looked up): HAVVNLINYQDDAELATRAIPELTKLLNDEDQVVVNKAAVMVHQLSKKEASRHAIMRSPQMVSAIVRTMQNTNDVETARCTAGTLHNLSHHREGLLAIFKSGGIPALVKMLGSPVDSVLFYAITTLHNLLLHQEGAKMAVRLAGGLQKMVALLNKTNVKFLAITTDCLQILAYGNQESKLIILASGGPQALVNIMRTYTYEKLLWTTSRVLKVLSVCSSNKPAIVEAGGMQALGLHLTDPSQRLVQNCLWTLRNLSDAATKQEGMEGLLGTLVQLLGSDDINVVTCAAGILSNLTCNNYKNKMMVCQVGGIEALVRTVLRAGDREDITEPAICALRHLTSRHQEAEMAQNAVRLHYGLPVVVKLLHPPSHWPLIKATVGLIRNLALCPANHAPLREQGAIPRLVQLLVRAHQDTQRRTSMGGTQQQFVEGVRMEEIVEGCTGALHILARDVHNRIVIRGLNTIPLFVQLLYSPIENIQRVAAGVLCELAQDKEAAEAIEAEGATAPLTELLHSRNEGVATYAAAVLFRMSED


Molecular target: T1, β-catenin
Experiment: cell-based or functional assay

Wnt Reporter EC50	Binder
≤ 7.5 µM	KMWFLISFWD (HELM PEPTIDE1{K.M.W.F.L.I.S.F.W.D}$PEPTIDE1,PEPTIDE1,1:R3-10:R3$$$V2.0; SMILES CC[C@H](C)[C@@H]1NC(=O)[C@H](CC(C)C)NC(=O)[C@H](Cc2ccccc2)NC(=O)[C@H](Cc2c[nH]c3ccccc23)NC(=O)[C@H](CCSC)NC(=O)[C@@H](N)CCCCNC(=O)C[C@@H](C(=O)O)NC(=O)[C@H](Cc2c[nH]c3ccccc23)NC(=O)[C@H](Cc2ccccc2)NC(=O)[C@H](CO)NC1=O) [SEQ ID NO: 171]
≤ 7.5 µM	KWFLICFWE (HELM PEPTIDE1{K.W.F.L.I.C.F.W.E}$PEPTIDE1,PEPTIDE1,1:R3-9:R3$$$V2.0; SMILES CC[C@H](C)[C@@H]1NC(=O)[C@H](CC(C)C)NC(=O)[C@H](Cc2ccccc2)NC(=O)[C@H](Cc2c[nH]c3ccccc23)NC(=O)[C@@H](N)CCCCNC(=O)CC[C@@H](C(=O)O)NC(=O)[C@H](Cc2c[nH]c3ccccc23)NC(=O)[C@H](Cc2ccccc2)NC(=O)[C@H](CS)NC1=O) [SEQ ID NO: 179]
≤ 7.5 µM	KWFLICAWD (HELM PEPTIDE1{K.W.F.L.I.C.A.W.D}$PEPTIDE1,PEPTIDE1,1:R3-9:R3$$$V2.0; SMILES CC[C@H](C)[C@@H]1NC(=O)[C@H](CC(C)C)NC(=O)[C@H](Cc2ccccc2)NC(=O)[C@H](Cc2c[nH]c3ccccc23)NC(=O)[C@@H](N)CCCCNC(=O)C[C@@H](C(=O)O)NC(=O)[C@H](Cc2c[nH]c3ccccc23)NC(=O)[C@H](C)NC(=O)[C@H](CS)NC1=O) [SEQ ID NO: 168]
≤ 7.5 µM	KWFLICAWD (HELM PEPTIDE1{[ac].K.W.F.L.I.C.A.W.D}$PEPTIDE1,PEPTIDE1,2:R3-10:R3$$$V2.0; SMILES CC[C@H](C)[C@@H]1NC(=O)[C@H](CC(C)C)NC(=O)[C@H](Cc2ccccc2)NC(=O)[C@H](Cc2c[nH]c3ccccc23)NC(=O)[C@@H](NC(C)=O)CCCCNC(=O)C[C@@H](C(=O)O)NC(=O)[C@H](Cc2c[nH]c3ccccc23)NC(=O)[C@H](C)NC(=O)[C@H](CS)NC1=O) [SEQ ID NO: 169]
> 22.5 µM and ≤ 30 µM	KWFLISAWD (HELM PEPTIDE1{K.W.F.L.I.S.A.W.D}$PEPTIDE1,PEPTIDE1,1:R3-9:R3$$$V2.0; SMILES CC[C@H](C)[C@@H]1NC(=O)[C@H](CC(C)C)NC(=O)[C@H](Cc2ccccc2)NC(=O)[C@H](Cc2c[nH]c3ccccc23)NC(=O)[C@@H](N)CCCCNC(=O)C[C@@H](C(=O)O)NC(=O)[C@H](Cc2c[nH]c3ccccc23)NC(=O)[C@H](C)NC(=O)[C@H](CO)NC1=O) [SEQ ID NO: 202]
> 7.5 µM and ≤ 15 µM	KWFLISAWE (HELM PEPTIDE1{[ac].K.W.F.L.I.S.A.W.E}$PEPTIDE1,PEPTIDE1,2:R3-10:R3$$$V2.0; SMILES CC[C@H](C)[C@@H]1NC(=O)[C@H](CC(C)C)NC(=O)[C@H](Cc2ccccc2)NC(=O)[C@H](Cc2c[nH]c3ccccc23)NC(=O)[C@@H](NC(C)=O)CCCCNC(=O)CC[C@@H](C(=O)O)NC(=O)[C@H](Cc2c[nH]c3ccccc23)NC(=O)[C@H](C)NC(=O)[C@H](CO)NC1=O) [SEQ ID NO: 187]
> 7.5 µM and ≤ 15 µM	KWALISAWD (HELM PEPTIDE1{K.W.[Cha].L.I.S.A.W.D}$PEPTIDE1,PEPTIDE1,1:R3-9:R3$$$V2.0; SMILES CC[C@H](C)[C@@H]1NC(=O)[C@H](CC(C)C)NC(=O)[C@H](CC2CCCCC2)NC(=O)[C@H](Cc2c[nH]c3ccccc23)NC(=O)[C@@H](N)CCCCNC(=O)C[C@@H](C(=O)O)NC(=O)[C@H](Cc2c[nH]c3ccccc23)NC(=O)[C@H](C)NC(=O)[C@H](CO)NC1=O) [SEQ ID NO: 203]
≤ 7.5 µM	KWFLICFWD (HELM PEPTIDE1{K.W.F.L.I.C.F.W.D}$PEPTIDE1,PEPTIDE1,1:R3-9:R3$$$V2.0; SMILES CC[C@H](C)[C@@H]1NC(=O)[C@H](CC(C)C)NC(=O)[C@H](Cc2ccccc2)NC(=O)[C@H](Cc2c[nH]c3ccccc23)NC(=O)[C@@H](N)CCCCNC(=O)C[C@@H](C(=O)O)NC(=O)[C@H](Cc2c[nH]c3ccccc23)NC(=O)[C@H](Cc2ccccc2)NC(=O)[C@H](CS)NC1=O) [SEQ ID NO: 172]
> 22.5 µM and ≤ 30 µM	KWFLIAFWE (HELM PEPTIDE1{K.W.F.L.I.A.F.W.E}$PEPTIDE1,PEPTIDE1,1:R3-9:R3$$$V2.0; SMILES CC[C@H](C)[C@@H]1NC(=O)[C@H](CC(C)C)NC(=O)[C@H](Cc2ccccc2)NC(=O)[C@H](Cc2c[nH]c3ccccc23)NC(=O)[C@@H](N)CCCCNC(=O)CC[C@@H](C(=O)O)NC(=O)[C@H](Cc2c[nH]c3ccccc23)NC(=O)[C@H](Cc2ccccc2)NC(=O)[C@H](C)NC1=O) [SEQ ID NO: 201]
≤ 7.5 µM	KWFLIAFWE (HELM PEPTIDE1{[ac].K.W.F.L.I.A.F.W.E}$PEPTIDE1,PEPTIDE1,2:R3-10:R3$$$V2.0; SMILES CC[C@H](C)[C@@H]1NC(=O)[C@H](CC(C)C)NC(=O)[C@H](Cc2ccccc2)NC(=O)[C@H](Cc2c[nH]c3ccccc23)NC(=O)[C@@H](NC(C)=O)CCCCNC(=O)CC[C@@H](C(=O)O)NC(=O)[C@H](Cc2c[nH]c3ccccc23)NC(=O)[C@H](Cc2ccccc2)NC(=O)[C@H](C)NC1=O) [SEQ ID NO: 200]
≤ 7.5 µM	KWFLISAWE (HELM PEPTIDE1{K.W.F.L.I.S.A.W.E}$PEPTIDE1,PEPTIDE1,1:R3-9:R3$$$V2.0; SMILES CC[C@H](C)[C@@H]1NC(=O)[C@H](CC(C)C)NC(=O)[C@H](Cc2ccccc2)NC(=O)[C@H](Cc2c[nH]c3ccccc23)NC(=O)[C@@H](N)CCCCNC(=O)CC[C@@H](C(=O)O)NC(=O)[C@H](Cc2c[nH]c3ccccc23)NC(=O)[C@H](C)NC(=O)[C@H](CO)NC1=O) [SEQ ID NO: 183]

Continued, binder first:

Binder	Wnt Reporter EC50
H-KWILICFWG-OH [SEQ ID NO: 117]	> 15 µM and ≤ 22.5 µM
H-MWFLICHWG-OH [SEQ ID NO: 145]	> 7.5 µM and ≤ 15 µM
H-M[αMeW]ILISFWG-OH [SEQ ID NO: 134]	> 30 µM
H-MWILISYWG-OH [SEQ ID NO: 152]	≤ 7.5 µM
KWILICFWD (HELM PEPTIDE1{K.W.I.L.I.C.F.W.D}$PEPTIDE1,PEPTIDE1,1:R3-9:R3$$$V2.0; SMILES CC[C@H](C)[C@@H]1NC(=O)[C@H](CC(C)C)NC(=O)[C@H]([C@@H](C)CC)NC(=O)[C@H](Cc2c[nH]c3ccccc23)NC(=O)[C@@H](N)CCCCNC(=O)C[C@@H](C(=O)O)NC(=O)[C@H](Cc2c[nH]c3ccccc23)NC(=O)[C@H](Cc2ccccc2)NC(=O)[C@H](CS)NC1=O) [SEQ ID NO: 120]	≤ 7.5 µM
H-RWILICFWG-OH [SEQ ID NO: 119]	> 7.5 µM and ≤ 15 µM
H-MWFLIHFWG-OH [SEQ ID NO: 163]	≤ 7.5 µM
H-HWILICFWG-OH [SEQ ID NO: 118]	≤ 7.5 µM
H-MWI[αMeL]ICFWG-OH [SEQ ID NO: 130]	> 22.5 µM and ≤ 30 µM
H-MWFLICH[Trp(3-Me)]G-OH [SEQ ID NO: 135]	> 7.5 µM and ≤ 15 µM
VWFLICFWG (HELM PEPTIDE1{[Nva].W.F.L.I.C.F.W.G}$$$$V2.0; SMILES CCC[C@H](N)C(=O)N[C@@H](Cc1c[nH]c2ccccc12)C(=O)N[C@@H](Cc1ccccc1)C(=O)N[C@@H](CC(C)C)C(=O)N[C@H](C(=O)N[C@@H](CS)C(=O)N[C@@H](Cc1ccccc1)C(=O)N[C@@H](Cc1c[nH]c2ccccc12)C(=O)NCC(=O)O)[C@@H](C)CC) [SEQ ID NO: 141]	> 7.5 µM and ≤ 15 µM
MWFLICFWD (HELM PEPTIDE1{[O=C(CCCN[*:1])[*:2]].M.W.F.L.I.C.F.W.D}$PEPTIDE1,PEPTIDE1,1:R1-10:R3$$$V2.0; SMILES CC[C@H](C)[C@@H]1NC(=O)[C@H](CC(C)C)NC(=O)[C@H](Cc2ccccc2)NC(=O)[C@H](Cc2c[nH]c3ccccc23)NC(=O)[C@H](CCSC)NC(=O)CCCNC(=O)C[C@@H](C(=O)O)NC(=O)[C@H](Cc2c[nH]c3ccccc23)NC(=O)[C@H](Cc2ccccc2)NC(=O)[C@H](CS)NC1=O) [SEQ ID NO: 147]	> 30 µM
H-MWFLIQFWG-OH [SEQ ID NO: 143]	> 7.5 µM and ≤ 15 µM
H-MWFLICH[Trp(1-Me)]G-OH [SEQ ID NO: 140]	> 15 µM and ≤ 22.5 µM
